Experimental findings from publication PMC9025068, “DNA-Binding Properties of a Novel Crenarchaeal Chromatin-Organizing Protein in Sulfolobus acidocaldarius” (Biomolecules, 2022) are described below.

Data set [1] relates to Sul12a (Sulfolobus acidocaldarius). The experiment in a line: EMSA. Particulars: KDapp, salmon sperm DNA 25 ug/mL, 20 mM Tris-HCl pH 8.0, 1 mM MgCl2, 0.1 mM DTT, 12.5% glycerol, 50 mM NaCl, 0.4 mM EDTA, 37 C 20 min, 0.1 nM 32P-DNA with 25 ug/mL salmon sperm DNA …. A general note: Mobility shift assays separate free from complexed probe on a gel.
Data set [2] deals with the molecule itself. Put plainly: SDS-PAGE with western blot; 100 and 250 ug purified Sul12a separated by SDS-PAGE (4-12%), blotted on PVDF, probed with HRP-conjugated anti-polyHistidine antibodies.

For argO promoter region (F3), in data set [1] (F1 + F3 mixture), the Kd turned out to be 3700 nM. Regarding carAB promoter region (F2), the Kd in data set [1] (F1 + F2 mixture) came to 1200 nM.

B1: Sul12a (natural protein, Sulfolobus acidocaldarius, UniProt Q4JA12 1-107, looked up)
chain: MELTPRLQDIISILKEKGGSVNIRDLALQLKISPKTAKGYARELYRLGYIEMDENENMILKRENPENITDLKKTVETHTAEIEALKKEVEFLKEELSRFRGTKKVKV
notes: Sul12a of Sulfolobus acidocaldarius, encoded by the 324-bp gene Saci_1012; 107 amino acids, native MW 12.4 kDa (recombinant His-tagged monomer 14.3 kDa); the Saci_1012 coding region was amplified from genomic DNA and cloned in pET-45b(+); The preparation also held lower-MW species without tag (contaminants or degradation products); also called Saci_1012; not shown: His tag, N-terminal, kept
Usually stoichiometry N stands for a count of units in the complex or per binding partner. B1: in data set [2], the “stoichiometry N” value came out at 2.
